Laboratory results as given in article doi:10.1101/225821 (bioRxiv, 2017).

B1: SALM3 LRR-Ig-Fn_(17-510) (domain or fragment, mouse, UniProt Q80XU8 17-510, looked up)
chain: CPLPCVCQNLSESLSTLCAHRGLLFVPPNVDRRTVELRLADNFIQALGPPDFRNMTGLVDLTLSRNAITRIGARSFGDLESLRSLHLDGNRLVELGSSSLRGPVNLQHLILSGNQLGRIAPGAFDDFLDSLEDLDVSYNNLRQVPWAGIGSMPALHTLNLDHNLIDALPPGVFAQLSQLSRLDLTSNRLATLAPDPLFSRGRDAEASPSPLVLSFSGNPLHCNCELLWLRRLARPDDLETCASPPTLAGRYFWAVPEGEFSCEPPLIARHTQRLWVLEGQRATLRCRALGDPVPTMHWVGPDDRLVGNSSRAWAFPNGTLEIGVTGAGDAGAYTCIATNPAGEATARVELRVLALPHGGNTSAEGGRPGPSDIAASARTAAEGEGTLESEPAVQVTEVTATSGLVSWGLGRPADPVWMFQIQYNSSEDETLIYRIVPASSHHFLLKHLVPGADYDLCLLALSPAAGPSDLTATRLLGCAHFSTLPATPLCHALQ
B2: SALM5 LRR-Ig_(18-376) (domain or fragment, mouse, UniProt Q8BXA0 18-376, looked up)
chain: QICPKRCVCQILSPNLATLCAKKGLLFVPPNIDRRTVELRLADNFVTNIKRKDFANMTSLVDLTLSRNTISFITPHAFADLRNLRALHLNSNRLTKITNDMFSGLSNLHHLILNNNQLTLISSTAFDDVFALEELDLSYNNLETIPWDAVEKMVSLHTLSLDHNMIDNIPKGTFSHLHKMTRLDVTSNKLQKLPPDPLFQRAQVLATSGIISPSTFALSFGGNPLHCNCELLWLRRLSREDDLETCASPALLTGRYFWSIPEEEFLCEPPLITRHTHEMRVLEGQRATLRCKARGDPEPAIHWISPEGKLISNATRSLVYDNGTLDILITTVKDTGAFTCIASNPAGEATQTVDLHIIK
B3: SALM3 LRR-Ig_(17-367) (domain or fragment, mouse, UniProt Q80XU8 17-367, looked up)
chain: CPLPCVCQNLSESLSTLCAHRGLLFVPPNVDRRTVELRLADNFIQALGPPDFRNMTGLVDLTLSRNAITRIGARSFGDLESLRSLHLDGNRLVELGSSSLRGPVNLQHLILSGNQLGRIAPGAFDDFLDSLEDLDVSYNNLRQVPWAGIGSMPALHTLNLDHNLIDALPPGVFAQLSQLSRLDLTSNRLATLAPDPLFSRGRDAEASPSPLVLSFSGNPLHCNCELLWLRRLARPDDLETCASPPTLAGRYFWAVPEGEFSCEPPLIARHTQRLWVLEGQRATLRCRALGDPVPTMHWVGPDDRLVGNSSRAWAFPNGTLEIGVTGAGDAGAYTCIATNPAGEATARVELR
B4: SALM1 LRR-Ig-Fn_(20-518) (domain or fragment, mouse, UniProt Q80TG9 20-518, looked up)
chain: ACPKYCVCQNLSESLGTLCPSKGLLFVPPDIDRRTVELRLGGNFIIHIGRQDFANMTGLVDLTLSRNTISHIQPFSFLDLESLRSLHLDSNRLPSLGEDTLRGLVNLQHLIVNNNQLGGIADDAFEDFLLTLEDLDLSYNNLHGLPWDSVRRMVNLHQLSLDHNLLDHIAEGTFADLQKLARLDLTSNRLQKLPPDPIFARSQASLLTATPFAPPLSFSFGGNPLHCNCELLWLRRLERDDDLETCGSPGSLKGRYFWHIREEEFVCEPPLITQHTHKLLVLEGQAATLKCKAIGDPSPLIHWVAPDDRLVGNSSRTAVYDNGTLDILITTSQDSGPFTCIAANAAGEATATVEVSIVQLPHLSNSTSRMAPPKSRLSDITGSSKTSRGGGGSGAGEPPKSTPERAVLVSDVTTTSALVKWSVSKSAPRVKMYQLQYNCSDDEVLIYRMIPASNKAFVVNNLVSGTGYDLCVLAMWDDTATTLTATNIVGCAQFFTKAD

Assays:
[1] = molecular target: Fc-tagged SALM3 LRR-Ig-Fn (mouse) (UniProt Q80XU8); experiment: SPR
SEC-MALS = molecular target: the molecule itself; experiment: SEC-MALS
[2] = molecular target: RPTPσ Ig1-3meB_(33-331) (mouse) (UniProt B0V2N1); experiment: SEC-MALS

Molecule	fold lower affinity than for RPTPσ-meB [1] [fold]	stoichiometry N (SEC-MALS)	stoichiometry N (SALM3 per RPTPσ (2:1)) [2]
PTPσ Ig1-3_(33-327) (from UniProt B0V2N1 33-327) (domain or fragment)	10	–	–
B1	–	2	–
B2	–	2	–
B3	–	2	2
B4	–	2	–
